Usually EC50 (read off the curve) stands for the concentration giving half of the maximal effect. A high value points to weaker potency.

Test [1] addresses T1, Der f 1 (house dust mite, UniProt P16311 99-321).
T1 construct: Also used oligonucleotide-barcoded for cell staining
T1 sequence (looked up): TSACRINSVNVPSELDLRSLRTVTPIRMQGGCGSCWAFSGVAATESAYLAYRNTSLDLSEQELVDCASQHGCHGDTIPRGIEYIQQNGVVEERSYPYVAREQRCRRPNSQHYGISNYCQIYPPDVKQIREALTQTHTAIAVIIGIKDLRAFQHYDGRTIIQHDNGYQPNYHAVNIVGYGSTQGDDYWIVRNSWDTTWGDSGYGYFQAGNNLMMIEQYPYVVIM
Put plainly: centered log-ratio of barcode count. The source says:
(§1) The barcoded antigen library was mapped by the CellRanger software to a custom short-read reference that contained the DNA tag sequences of the four barcoded antigens, namely, Der p 1, Der p 2, Der f 1 and Ole e 1. These tag sequences were quantified across all cells and were normalized by taking the centered log-ratio (CLR) per barcoded antigen across each sample capture. In addition, background antigen signal for each barcoded antigen was removed by DSB (Denoised and Scaled by Background). Both the CLR and the DSB normalized values were used to quantify the target antigen signals, namely, those for Der p 1, Der p 2 and Der f 1, against the control signal, namely, that for Ole e 1.

The target in test [2] is T2, Der p 2 (house dust mite, UniProt P49278 18-146).
T2 construct: Also used oligonucleotide-barcoded for cell staining
T2 sequence (looked up): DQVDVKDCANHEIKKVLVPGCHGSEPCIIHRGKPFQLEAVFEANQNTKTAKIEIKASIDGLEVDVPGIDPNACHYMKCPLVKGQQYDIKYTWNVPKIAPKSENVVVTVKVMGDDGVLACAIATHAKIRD
Kind of test: centered log-ratio of barcode count.
Text: as §1

Test [3] concerns the target T1, Der f 1. Put plainly: barcode rank score against control Ole e 1.
For test [4], the target named is T2, Der p 2. Put plainly: barcode rank score against control Ole e 1.
For test [5], the target named is T3, Der p 1 (house dust mite, UniProt P08176 99-320).
T3 construct: Also used oligonucleotide-barcoded for cell staining; also called natural Der p 1
T3 sequence (looked up): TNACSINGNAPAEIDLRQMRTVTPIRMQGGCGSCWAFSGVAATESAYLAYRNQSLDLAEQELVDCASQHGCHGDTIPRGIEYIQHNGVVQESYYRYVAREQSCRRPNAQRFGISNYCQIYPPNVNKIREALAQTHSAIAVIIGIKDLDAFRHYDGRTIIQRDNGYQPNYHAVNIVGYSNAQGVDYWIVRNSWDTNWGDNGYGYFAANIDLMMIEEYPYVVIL
Put plainly: ELISA, coated Der p1. Here is the method:
(§2) After selecting allergen-specific antibodies, relative binding to Der p 1, Der p 2, and Der f 1 were quantified by ELISA. […] Specifically, binding microtiter plates were coated with 100 μl of 2 μg/mL of natural Der p 1, Der p 2, Der f 1, and Ole e 1 in PBS overnight at 4′C. IgE antibodies were prepared at a concentration of 1 μg/mL and serially diluted three-fold in PBS with 0.5% w/v BSA. After washing with 0.05% v/v Tween® 20 in PBS and blocking in PBS with 0.5% w/v BSA, 100 μl of the diluted IgE antibodies were transferred to the plates and incubated for one hour at ambient temperature. Subsequently, 100 μL of anti-mouse IgE antibody conjugated to horse-radish peroxidase (HRP) diluted at 1:5000 was added. The plates were then incubated for one hour at ambient temperature, and washed in 0.05% v/v/Tween® 20 in PBS. Subsequently, the HRP substrate 3,3′,5,5′-tetramethylbenzidine (TMB) was added. The reaction was stopped (with 100 μL of sulfuric acid 2.0 N) and optical density values determined using a plate reader at 450 nm.
(An ELISA detects its analyte on a solid surface through an enzyme-linked reagent.)

The target of test [6] is T1, Der f 1. Put plainly: barcoded-antigen count on source cell.
Test [7] deals with T2, Der p 2. Kind of test: barcoded-antigen count on source cell.
Test [8] deals with T1, Der f 1. Kind of test: ELISA, coated Der f1. How it is done:
as §2

In test [9] the target is T2, Der p 2. Kind of test: ELISA, coated Der p2. How it is done: as §2
Test [10] deals with T1, Der f 1. Put plainly: barcoded antigen sequencing of single IgE PCs with trapped IgE [cont.].
Text: as §1

Test [11] concerns the target T2, Der p 2. The test is described as above.
Text: as §1

The target of test [12] is T3, Der p 1. The test is described as above.
Text: as §1

Test [13] concerns the target T1, Der f 1. Put plainly: antigen specificity score against Ole e 1 from barcode counts of single IgE PCs [cont.]. Here is the method:
(§3) Antigen specificity score (AgSS) for IgG were calculated by subtracting the quantile of hIL-6Rα barcoded UMI counts multiplied by a penalty factor (x) from the quantile of hIL-4Rα barcoded UMI counts, AgSS=Q_hIL-4Rα-Q_hIL-6Rα^x. AgSS for IgE were calculated with a similar formula for mouse and human single cell data. For IgE scores the target antigens were either Der p1, Der p2 or Der f1 and the control was always Ole e1.
(§4) Following processing of the three single-cell libraries, the gene expression and V(D)J region sequencing data were used to subset PCs with a valid IgE constant region and detectable expression of IgE and CD79a but lacking the expression of Ms4a1 and CD19 typically found in non-PC B cells. IgE-expressing PCs were then assessed for differential expression against additional IgA, IgG, and IgM plasma cell isotypes to further characterize the unique transcriptional signature of IgE-secreting PCs. IgE-secreting PCs were then assessed for antigen specificity by comparing the normalized levels of the target antigens, namely, Der p 1, Der p 2, or Der f 1, against the normalized level of the control antigen Ole e 1. This was performed by calculating an empirical score for each target antigen and subtracting the […] with a penalty factor. The formula used to do is set forth below: […]

Test [14] addresses T2, Der p 2. The test is described as above. Here is the method: as §3, §4
Test [15] deals with T3, Der p 1. Described as above. Here is the method: as §3, §4
Test [16] concerns the target T1, Der f 1. Put plainly: barcoded antigen sequencing of single IgE PCs with trapped IgE.
For test [17], the target named is T2, Der p 2. Described as above.
Test [18] concerns the target T3, Der p 1. The description is as above.

B1: IgE mAb 12_2 (antibody, V domains shown)
VH: QAYLQQSGAELVRPGASVKMSCKASGYTFISYNMHWVKQTRRQGLEWIGAIYPGNGDTSYNQKFKGKATLTVDKSSSTAYMQLSSLTSEDSAVYFCARWDYYGSSYGAYWGQGTLVTVSA
VL: DIQMTQSPASLSVSVGETVTITCRASENIYSNLAWYQQKQGKSPQLLVYAATNLADGVPSRFSGSGSGTQYSLKINSLQSEDFGSYYCQHFWGTPWTFGGGTKLEIK
With B1, the Derf1_ab_clr in test [1] turned out to be 1.74. Further, the Derp2_ab_clr in test [2] was 0.00487. Besides, the Derf1_ab_rank in [3] turned out to be 0.973. The molecule also had a Derp2_ab_rank in [4] of 0.453. For the same molecule, the “EC50 (read off the curve)” value in test [5], in [8] and in test [9] was about 0.1 nM in each case. This molecule showed a Derf1_ab_raw in [6] of 57 counts. Besides, the Derp2_ab_raw in test [7] stood at 11 counts.

B2: Candidate ID 13 (antibody, V domains shown)
VH: QAYLQQSGAELVRPGASVKMSCKASGYTFISYNMHWVKQTRRQGLEWIGAIYPGNGDTSYNQKFKGKATLTVDKSSSTAYMQLSSLTSEDSAVYFCARWDYYGSSYGAYWGQGTLVTVSA
VL: DIQMTQSPASLSVSVGETVTITCRASENIYSNLAWYQQKQGKSPQLLVYAATNLADGVPSRFSGSGSGTQYSLKINSLQSEDFGSYYCQHFWGTPWTFGGGTKLEIK
On to B2, for which the “Normalized Barcode Count” value was determined as 1.74 in test [10], 0.005 in [11] and 0.233 in [12]. Further, the “Antigen Score” value was 0.973 in [13], 0.453 in [14] and 0.637 in test [15]. For the same molecule, the entries for the “Raw Antigen Barcode Count” value in test [16], in test [17] and in test [18] were 57, 11 and 15, respectively.

B3: Candidate ID 21 (antibody, V domains shown)
VH: QVQLQQSGPELVKPGASVKISCKAPGNAFSYSWMNWVKQRPGKGLEWVGRIYPGDGDTNYNGKFMGKATLTADKSSNTAYIQLSSLTSEDSAVYFCARSGGGTLYWYFDVWGTGTTVTVSS
VL: DIVMTQSPSSLALSVGQKVTMNCRSSQSLLNSFNQKNYLAWFQQKPGQSPRLLIYFASTRESGVPDRFIGSGSGTDFTLTISSVQAEDLADYFCQQHYNTPLTFGAGTTLELK
notes: IgE PCs LN
As for B3, the entries for the “Normalized Barcode Count” value in test [10], in test [11] and in [12] were -0.795, 4.01 and -0.398, respectively. The “Antigen Score” value in test [13] is -0.386; in [14] it was 0.412; in test [15], -0.245. The entries for the “Raw Antigen Barcode Count” value in test [16], in test [17] and in test [18] were 1, 215 and 2, respectively.

These data come from US20230349919A1 (Regeneron, published 2023).
